Assay results published in the supplement of paper PMC7877785.
± gives the uncertainty stated by the source.

Test: self-splicing fitness, log relative to wild type (ln ratio); higher = more splicing; Tetrahymena group I intron in knt gene, E. coli kanamycin selection, DiMSum; sequences stand for … in CUCUCU…GGAGGGAAAAGUUAUCAGGCAUGCACCUGGUAGCUAGUCUUUAAACCAAUAGAUUGCAUCGGUUUAAAAGGCAAGACCGUCAAAUUGCGGGAAAGGGGUCAACAGCCGUUCAGUACCAAGUCUCAGGGGAAACUUUGAGAUGGCCUUGCAAAGGGUAUGGUAAUAAGCUGACGGACAUGGUCCUAACCACGCAGCCAAGUCCUAAGUCAACAGAUCUUCUGUUGAUAUGGAUGCAGUUCACAGACUAAAUGUCGGUCGGGGAAGAUGUAUUCUUCUCAUAAGAUAUAGUCGGACCUCUCCUUAAUGGGAGCUAGCGGAUGAAGUGAUGCAACACUGGAGCCGCUGGGAACUAAUUUGUAUGCGAAAGUAUAUUGAUUAGUUUUGGAGUACUCGUGGUCG
Procedure, shortened: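 Library with all eight P1ex-region intron nucleotides randomised, intron inside the knt kanamycin-resistance gene on pET-22b(+), in E. coli BL21(DE3). Cells grew overnight at 37°C or 30°C on LB agar with or without 25 μg/mL kanamycin (plus 100 μg/mL carbenicillin, 50 μM IPTG, 0.2% rhamnose), in six replicate transformations. Pooled colonies were amplicon-sequenced on Illumina HiSeq 2500. DiMSum fitness is the error-weighted combination of wild-type-normalised replicate fold changes, kanamycin versus none.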

Sequence | self-splicing fitness (ln) (30 °C) | self-splicing fitness (ln) (37 °C)
CGCGAGCAAUAUUACGUAGA | -3.09 ± 0.15 | -2.93 ± 0.23
CGCGAGCAAUAUUACGUCCA | – | -1.96 ± 0.32
CGCGAGCAAUAUUACGUUCC | -3.49 ± 0.32 | –
CGCUAGCAAUAUUACGACGA | -1.46 ± 0.15 | 0.422 ± 0.16
CGCUAGCAAUAUUACGACGU | -1.86 ± 0.1 | -0.355 ± 0.12
CGCUAGCAAUAUUACGAGGA | -1.5 ± 0.18 | -2.97 ± 0.29
CGCUAGCAAUAUUACGAUAG | -1.9 ± 0.065 | -0.433 ± 0.085
CGCUAGCAAUAUUACGAUCG | -1.17 ± 0.12 | -0.644 ± 0.14
CGCUAGCAAUAUUACGAUUG | -1.18 ± 0.1 | 0.0898 ± 0.13
CGCUAGCAAUAUUACGCACC | -1.98 ± 0.18 | -1 ± 0.23
CGCUAGCAAUAUUACGCACU | -1.27 ± 0.089 | -0.65 ± 0.11
CGCUAGCAAUAUUACGCGUU | -1.99 ± 0.15 | -2.51 ± 0.29
CGCUAGCAAUAUUACGCUCA | -2.4 ± 0.18 | -0.522 ± 0.11
CGCUAGCAAUAUUACGCUGU | – | -2.3 ± 0.19
CGCUAGCAAUAUUACGGUAG | -2.52 ± 0.11 | -2 ± 0.13
CGCUAGCAAUAUUACGUACG | -1.66 ± 0.13 | -1.07 ± 0.13
CGCUAGCAAUAUUACGUAGA | -2.69 ± 0.14 | -1.54 ± 0.19
CGCUAGCAAUAUUACGUGCC | -1.58 ± 0.11 | -0.959 ± 0.15
CGCUAGCAAUAUUACGUGUA | -3.54 ± 0.27 | -1.53 ± 0.13
CGCUAGCAAUAUUACGUUGG | -4 ± 0.23 | -2.24 ± 0.19
CGCUAGCAAUAUUACGUUUC | -2.78 ± 0.17 | -2.23 ± 0.22
CGGAAGCAAUAUUACGACAA | -2.42 ± 0.31 | -2.2 ± 0.33
CGGAAGCAAUAUUACGAUAC | -2.26 ± 0.18 | -2.22 ± 0.21
CGGAAGCAAUAUUACGAUAG | -1.11 ± 0.082 | 0.166 ± 0.1

Sequence | self-splicing fitness (ln) (30 °C) | self-splicing fitness (ln) (37 °C)
CGGAAGCAAUAUUACGCAAU | -3 ± 0.26 | -2.69 ± 0.26
CGGAAGCAAUAUUACGCCCG | -2.86 ± 0.36 | –
CGGAAGCAAUAUUACGCCUA | -1.72 ± 0.21 | -0.963 ± 0.18
CGGAAGCAAUAUUACGCCUG | -1 ± 0.098 | -0.724 ± 0.12
CGGAAGCAAUAUUACGGCGU | -1.96 ± 0.16 | -1.04 ± 0.22
CGGAAGCAAUAUUACGGGAU | -3.67 ± 0.42 | -2.48 ± 0.25
CGGAAGCAAUAUUACGGGGU | -2.39 ± 0.27 | -3.41 ± 0.43
CGGAAGCAAUAUUACGGGUC | -3.78 ± 0.19 | -2.59 ± 0.21
CGGAAGCAAUAUUACGGUAA | -3.11 ± 0.23 | -2.23 ± 0.24
CGGAAGCAAUAUUACGGUAC | -3.17 ± 0.27 | -1.93 ± 0.25
CGGAAGCAAUAUUACGUAUU | -3.43 ± 0.28 | -3.37 ± 0.37
CGGAAGCAAUAUUACGUCUC | -4.07 ± 0.39 | -2.3 ± 0.19
CGGAAGCAAUAUUACGUCUU | -1.67 ± 0.083 | -0.53 ± 0.092
CGGAAGCAAUAUUACGUGUC | -3.44 ± 0.28 | -1.94 ± 0.31
CGGAAGCAAUAUUACGUUAU | -3.02 ± 0.21 | -2.3 ± 0.28
CGGCAGCAAUAUUACGACAA | -1.99 ± 0.1 | -2.28 ± 0.18
CGGCAGCAAUAUUACGACGA | -1 ± 0.11 | -1.41 ± 0.14
CGGCAGCAAUAUUACGACGU | -1.45 ± 0.066 | -0.471 ± 0.071
CGGCAGCAAUAUUACGAUAA | -2.07 ± 0.21 | -1.96 ± 0.34
CGGCAGCAAUAUUACGAUCU | -0.274 ± 0.084 | 0.148 ± 0.11
CGGCAGCAAUAUUACGCACC | -2.89 ± 0.17 | -2.05 ± 0.23
CGGCAGCAAUAUUACGCCCU | -1.01 ± 0.39 | 0.318 ± 0.29
CGGCAGCAAUAUUACGCCUU | -0.474 ± 0.097 | -0.622 ± 0.12
